The record followed here is patent US20030207290A1.

Where no end group is shown, it is not given here.

The target in one assay is BSA (control coating) (UniProt P02769). The experiment in a line: ECL plate binding assay: BSA control on electrode, biotinylated TnT protein, Sulfo-TAG streptavidin.
Assay [1] deals with Pool A of peptide:BSA conjugates (EGFR-pTyr1148, IkBa-24ppC, Myc-p58Tp62S). Put plainly: ECL 4-spot binding assay with pooled peptide-BSA conjugates, biotinylated TnT protein, Sulfo-TAG streptavidin.
The target in assay [2] is Pool B of peptide:BSA conjugates (EGFR-pTyr992, EGFR-pTyr1148, Smad3C). The description is as above.
For assay [3], the target named is Pool C of peptide:BSA conjugates (EGFR-pTyr1068, IkBa-24ppC, Smad3C). The description is as above.
In assay [4] the target is Pool D of peptide:BSA conjugates (EGFR-pTyr992, EGFR-pTyr1068, Myc-p58Tp62S). Described as above.
For assay [5], the target named is T1, EGFR-pY1068 phosphopeptide, LPVPE(p)….
T1 sequence (peptide, phosphotyrosine at (p)Y (residue 6 of the printed peptide; EGFR Tyr1068)): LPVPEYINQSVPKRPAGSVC
The experiment in a line: ECL 7-spot plate screen, peptide-BSA spot, biotinylated TnT protein, Ru-streptavidin; signal normalized in two steps.

In assay [6] the target is Grb2 (EST clone IMAGE 4398016), in vitro translated, biotin-labelled (UniProt P62993). Put plainly: competition: immobilized Grb2, +EGFR, un-phosphorylated peptide in solution; bound EGFR detected by its kinase activity on pEY.
Sequence of Grb2 (EST clone IMAGE 4398016), in vitro translated, biotin-labelled (P62993 whole entry): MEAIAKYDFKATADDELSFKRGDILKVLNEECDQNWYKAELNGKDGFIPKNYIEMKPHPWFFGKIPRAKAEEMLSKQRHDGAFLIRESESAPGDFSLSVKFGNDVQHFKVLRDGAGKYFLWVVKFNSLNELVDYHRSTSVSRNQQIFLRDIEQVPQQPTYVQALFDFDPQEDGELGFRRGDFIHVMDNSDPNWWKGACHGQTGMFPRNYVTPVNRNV

Sequence of BSA (control coating) (P02769 25-607 limits assumed): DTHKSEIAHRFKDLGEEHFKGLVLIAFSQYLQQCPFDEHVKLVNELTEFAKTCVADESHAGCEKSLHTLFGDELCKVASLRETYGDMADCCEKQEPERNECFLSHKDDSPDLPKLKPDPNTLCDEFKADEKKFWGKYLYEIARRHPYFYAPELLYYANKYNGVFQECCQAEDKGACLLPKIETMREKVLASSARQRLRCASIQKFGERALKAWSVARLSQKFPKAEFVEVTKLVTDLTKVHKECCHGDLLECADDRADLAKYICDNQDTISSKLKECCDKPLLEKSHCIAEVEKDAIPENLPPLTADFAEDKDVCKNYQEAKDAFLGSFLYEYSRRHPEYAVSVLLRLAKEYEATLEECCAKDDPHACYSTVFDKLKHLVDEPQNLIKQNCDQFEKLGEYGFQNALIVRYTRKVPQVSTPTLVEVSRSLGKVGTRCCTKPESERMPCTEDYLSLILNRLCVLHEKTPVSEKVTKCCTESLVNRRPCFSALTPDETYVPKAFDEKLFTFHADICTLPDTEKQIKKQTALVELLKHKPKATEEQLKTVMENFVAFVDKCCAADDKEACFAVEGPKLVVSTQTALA

B1: Phospholipase C gamma 1 (PLCγ) (EST clone IMAGE 4419252), in vitro translated, biotin-labelled (enzyme, UniProt P19174 1-1290, looked up)
chain: MAGAASPCANGCGPGAPSDAEVLHLCRSLEVGTVMTLFYSKKSQRPERKTFQVKLETRQITWSRGADKIEGAIDIREIKEIRPGKTSRDFDRYQEDPAFRPDQSHCFVILYGMEFRLKTLSLQATSEDEVNMWIKGLTWLMEDTLQAPTPLQIERWLRKQFYSVDRNREDRISAKDLKNMLSQVNYRVPNMRFLRERLTDLEQRSGDITYGQFAQLYRSLMYSAQKTMDLPFLEASTLRAGERPELCRVSLPEFQQFLLDYQGELWAVDRLQVQEFMLSFLRDPLREIEEPYFFLDEFVTFLFSKENSVWNSQLDAVCPDTMNNPLSHYWISSSHNTYLTGDQFSSESSLEAYARCLRMGCRCIELDCWDGPDGMPVIYHGHTLTTKIKFSDVLHTIKEHAFVASEYPVILSIEDHCSIAQQRNMAQYFKKVLGDTLLTKPVEISADGLPSPNQLKRKILIKHKKLAEGSAYEEVPTSMMYSENDISNSIKNGILYLEDPVNHEWYPHYFVLTSSKIYYSEETSSDQGNEDEEEPKEVSSSTELHSNEKWFHGKLGAGRDGRHIAERLLTEYCIETGAPDGSFLVRESETFVGDYTLSFWRNGKVQHCRIHSRQDAGTPKFFLTDNLVFDSLYDLITHYQQVPLRCNEFEMRLSEPVPQTNAHESKEWYHASLTRAQAEHMLMRVPRDGAFLVRKRNEPNSYAISFRAEGKIKHCRVQQEGQTVMLGNSEFDSLVDLISYYEKHPLYRKMKLRYPINEEALEKIGTAEPDYGALYEGRNPGFYVEANPMPTFKCAVKALFDYKAQREDELTFIKSAIIQNVEKQEGGWWRGDYGGKKQLWFPSNYVEEMVNPVALEPEREHLDENSPLGDLLRGVLDVPACQIAIRPEGKNNRLFVFSISMASVAHWSLDVAADSQEELQDWVKKIREVAQTADARLTEGKIMERRKKIALELSELVVYCRPVPFDEEKIGTERACYRDMSSFPETKAEKYVNKAKGKKFLQYNRLQLSRIYPKGQRLDSSNYDPLPMWICGSQLVALNFQTPDKPMQMNQALFMTGRHCGYVLQPSTMRDEAFDPFDKSSLRGLEPCAISIEVLGARHLPKNGRGIVCPFVEIEVAGAEYDSTKQKTEFVVDNGLNPVWPAKPFHFQISNPEFAFLRFVVYEEDMFSDQNFLAQATFPVKGLKTGYRAVPLKNNYSEDLELASLLIKIDIFPAKENGDLSPFSGTSLRERGSDASGQLFHGRAREGSFESRYQQPFEDFRISQEHLADHFDSRERRAPRRTRVNGDNRL
modifications: biotin on some lysine residues (incorporated at random from biotin-Lys-tRNA)
B1 had an Average ECL signal in the assay with BSA (control coating) of 342 ECL signal. Besides, the ECL signal came out at 239 ECL signal in assay [1], 2780 ECL signal in assay [2], 1550 ECL signal in assay [3] and 3390 ECL signal in assay [4].

B2: Shc1 (EST clone IMAGE 3907115), in vitro translated, biotin-labelled (protein, UniProt P29353-2 1-473, looked up)
chain: MNKLSGGGGRRTRVEGGQLGGEEWTRHGSFVNKPTRGWLHPNDKVMGPGVSYLVRYMGCVEVLQSMRALDFNTRTQVTREAISLVCEAVPGAKGATRRRKPCSRPLSSILGRSNLKFAGMPITLTVSTSSLNLMAADCKQIIANHHMQSISFASGGDPDTAEYVAYVAKDPVNQRACHILECPEGLAQDVISTIGQAFELRFKQYLRNPPKLVTPHDRMAGFDGSAWDEEEEEPPDHQYYNDFPGKEPPLGGVVDMRLREGAAPGAARPTAPNAQTPSHLGATLPVGQPVGGDPEVRKQMPPPPPCPGRELFDDPSYVNVQNLDKARQAVGGAGPPNPAINGSAPRDLFDMKPFEDALRVPPPPQSVSMAEQLRGEPWFHGKLSRREAEALLQLNGDFLVRESTTTPGQYVLTGLQSGQPKHLLLVDPEGVVRTKDHRFESVSHLISYHMDNHLPIISAGSELCLQQPVERKL
modifications: biotin on some lysine residues (incorporated at random from biotin-Lys-tRNA)
In the assay with BSA (control coating), B2 had an Average ECL signal of 342 ECL signal. For the same molecule, the ECL signal in assay [1] turned out to be 260 ECL signal; in assay [2], 318 ECL signal; in assay [3], 24 ECL signal; in assay [4], 26 ECL signal.

B3: BMX non-receptor tyrosine kinase (EST clone IMAGE 3919253), in vitro translated, biotin-labelled (enzyme, UniProt P51813 1-675, looked up)
chain: MDTKSILEELLLKRSQQKKKMSPNNYKERLFVLTKTNLSYYEYDKMKRGSRKGSIEIKKIRCVEKVNLEEQTPVERQYPFQIVYKDGLLYVYASNEESRSQWLKALQKEIRGNPHLLVKYHSGFFVDGKFLCCQQSCKAAPGCTLWEAYANLHTAVNEEKHRVPTFPDRVLKIPRAVPVLKMDAPSSSTTLAQYDNESKKNYGSQPPSSSTSLAQYDSNSKKIYGSQPNFNMQYIPREDFPDWWQVRKLKSSSSSEDVASSNQKERNVNHTTSKISWEFPESSSSEEEENLDDYDWFAGNISRSQSEQLLRQKGKEGAFMVRNSSQVGMYTVSLFSKAVNDKKGTVKHYHVHTNAENKLYLAENYCFDSIPKLIHYHQHNSAGMITRLRHPVSTKANKVPDSVSLGNGIWELKREEITLLKELGSGQFGVVQLGKWKGQYDVAVKMIKEGSMSEDEFFQEAQTMMKLSHPKLVKFYGVCSKEYPIYIVTEYISNGCLLNYLRSHGKGLEPSQLLEMCYDVCEGMAFLESHQFIHRDLAARNCLVDRDLCVKVSDFGMTRYVLDDQYVSSVGTKFPVKWSAPEVFHYFKYSSKSDVWAFGILMWEVFSLGKQPYDLYDNSQVVLKVSQGHRLYRPHLASDTIYQIMYSCWHELPEKRPTFQQLLSSIEPLREKDKH
modifications: biotin on some lysine residues (incorporated at random from biotin-Lys-tRNA)
Turning to B3, the normalized ECL signal in assay [5] worked out at 3.

B4: un-phosphorylated EGFR 1063-1081 peptide (Peptide, SEQ ID No. 8) (peptide)
peptide: LPVPEYINQSVPKRPAGSVC
modifications: not fully specified
For the molecule B4, the ECL signal of EGFR bound to Grb2 in presence of the peptide in assay [6] was 34100 ECL signal.
